What was measured:
[1] = target: T1, membrane-bound full-length human HVEM on stable HVEM-transfected HEK293F cells (clone no. 128) (human, UniProt Q92956 39-283); experiment: FACS titration on HVEM-HEK293F, half-maximum binding
T1 construct: The same cDNA was also expressed on Sf9 insect cells; also called TNFRSF14; CD270
T1 sequence: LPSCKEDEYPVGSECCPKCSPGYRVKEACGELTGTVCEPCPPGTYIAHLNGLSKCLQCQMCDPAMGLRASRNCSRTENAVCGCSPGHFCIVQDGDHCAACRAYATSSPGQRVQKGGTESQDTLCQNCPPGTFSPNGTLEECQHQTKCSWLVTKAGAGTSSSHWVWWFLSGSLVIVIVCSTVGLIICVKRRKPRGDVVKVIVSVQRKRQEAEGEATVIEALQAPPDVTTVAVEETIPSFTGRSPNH
Protocol: In order to determine the relative binding affinity of purified BTLA/HVEM blocking chimeric mouse/human anti-human HVEM antibodies no. 36H12, 45H6, 48H6, 11H7, and 49G4 for human HVEM, FACS analysis was used.
To this end, stable human full-length HVEM-transfected HEK293F cells (clone no. 128; see Example 1(a) above) were put at 10×10⁶ cells/mL in ice-chilled PBS containing 0.1% BSA (Sigma)/0.05% NaN₃ (PBS/BSA/NaN₃) supplemented with 50 μg/mL human IgGs (blocking possible Fcγ receptors; Sigma) for 10 minutes at 4° C. Then, 10 μL/tube (i.e., 0.1×10⁶ cells) of these cells were incubated with or without 100 μL titrated (in PBS/BSA/NaN₃) purified BTLA/HVEM blocking chimeric mouse/human anti-human HVEM antibody/tube for 30 minutes at 4° C. After extensive washing in PBS/BSA/NaN₃, cells were subsequently incubated with 1:200 diluted PE-conjugated goat anti-human IgG Fcγ-specific antibodies (Jackson ImmunoResearch) for 30 minutes at 4° C. After extensive washing in PBS/BSA/NaN₃, cells were fixed in 4% formaldehyde in PBS/BSA/NaN₃ for 30 minutes at 4° C. Binding (geo-mean fluorescence intensity) of chimeric mouse/human anti-human HVEM antibodies no. 36H12, 45H6, 48H6, 11H7, and 49G4 on membrane human HVEM was measured using a flow cytometer (FACSCalibur; BD Biosciences). For comparison, purified BTLA/HVEM blocking mouse anti-human HVEM antibody counterparts no. 36H12, 45H6, 48H6, 11H7, and 49G4 were run in parallel, and their binding was monitored as described in Example 2 (a).

[2] = target: T2, membrane-bound 'CRD1 truncated' human HVEM on transiently transfected HEK293F cells (human, UniProt Q92956 76-283); experiment: FACS, undiluted hybridoma supernatant, CRD1 truncated HVEM on HEK293F
T2 construct: aa 1-19 are a mouse Ig signal peptide and are left out; Starts with CRD2; also called human HVEM deleted for CRD1; CRD1 truncated HVEM
T2 sequence: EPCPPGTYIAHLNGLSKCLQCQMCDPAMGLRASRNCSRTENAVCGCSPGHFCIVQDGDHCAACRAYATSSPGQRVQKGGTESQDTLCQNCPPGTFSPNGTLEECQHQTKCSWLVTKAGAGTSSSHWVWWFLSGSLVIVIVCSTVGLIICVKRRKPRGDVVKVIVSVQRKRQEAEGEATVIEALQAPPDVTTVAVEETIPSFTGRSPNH
Protocol: Generation of human ‘full-length’ HVEM-transfected HEK293F cells (clone no. 128) is described in Example 1a. […] After 72 hours, surface human HVEM expression on transfected cells was analysed by FACS analysis. To this end, stable human full-length HVEM-transfected HEK293F cells and transient human ‘CRD1 truncated’ HVEM-transfected HEK293F cells were put at 10×10⁶ cells/mL in ice-chilled phosphate-buffered saline containing 0.1% BSA (Sigma)/0.05% NaN₃ (PBS/BSA/NaN₃) supplemented with 50 μg/mL human IgGs (blocking of possible Fcγ receptors; Sigma) for 10 minutes at 4° C. Then, 10 μL/tube (i.e., 0.1×10⁶ cells) of these cells were incubated with 100 μL undiluted hybridoma supernatant/tube for 30 minutes at 4° C. Phycoerythrin (PE)-conjugated mouse anti-human HVEM antibody (clone eBioHVEM-122; eBioscience) at 1:20 was run as a positive control antibody. After extensive washing in PBS/BSA/NaN₃, cells were subsequently incubated with 1:200 diluted PE-conjugated goat anti-mouse IgG Fcγ-specific antibodies (Jackson ImmunoResearch) for 30 minutes at 4° C. After extensive washing in PBS/BSA/NaN₃, cells were fixed in 2% formaldehyde in PBS/BSA/NaN₃ for 30 minutes at 4° C. Binding of antibodies was measured using a flow cytometer (model FACSCalibur; BD Biosciences).

EC50 [1]: 0.43 µg/mL
binding result [2]: no binding
B1: mouse anti-human HVEM antibody no. 36H12 (antibody, mouse IgG1, V domains shown)
VH: EVQLQQSGAGLVKPGASVKLSCTASGFNIKDTYMHWVRQRPEQGLEWIGRIDPATANTKYDPKFQGKATLTTDTSSNTAYLQLSSLTSEDTAVYYCVTYGYDVSWFAYWGLGALVTVSA
VL: DVLMTQTPLSLPVSLGDQASISCRSSQSIVHSNGITYLEWYLQKPGQSPKLLIYKVSNRFSGVPDRFSGSGSGTDFTLKISRVEAEDLGVYYCFQGSHVPLTFGAGTKLELK
notes: mouse IgG1/kappa; also called 36H12 (mouse)

Source: patent publication US20230052646A1 (JJP BIOLOGICS SP Z O O, published 2023)
